The target of assay [1] is T1, rhesus monkey ERBB3 His tag, monomeric (rhesus monkey (Macaca mulatta), UniProt P21860 20-643 (human entry), limits assumed).
T1 chain: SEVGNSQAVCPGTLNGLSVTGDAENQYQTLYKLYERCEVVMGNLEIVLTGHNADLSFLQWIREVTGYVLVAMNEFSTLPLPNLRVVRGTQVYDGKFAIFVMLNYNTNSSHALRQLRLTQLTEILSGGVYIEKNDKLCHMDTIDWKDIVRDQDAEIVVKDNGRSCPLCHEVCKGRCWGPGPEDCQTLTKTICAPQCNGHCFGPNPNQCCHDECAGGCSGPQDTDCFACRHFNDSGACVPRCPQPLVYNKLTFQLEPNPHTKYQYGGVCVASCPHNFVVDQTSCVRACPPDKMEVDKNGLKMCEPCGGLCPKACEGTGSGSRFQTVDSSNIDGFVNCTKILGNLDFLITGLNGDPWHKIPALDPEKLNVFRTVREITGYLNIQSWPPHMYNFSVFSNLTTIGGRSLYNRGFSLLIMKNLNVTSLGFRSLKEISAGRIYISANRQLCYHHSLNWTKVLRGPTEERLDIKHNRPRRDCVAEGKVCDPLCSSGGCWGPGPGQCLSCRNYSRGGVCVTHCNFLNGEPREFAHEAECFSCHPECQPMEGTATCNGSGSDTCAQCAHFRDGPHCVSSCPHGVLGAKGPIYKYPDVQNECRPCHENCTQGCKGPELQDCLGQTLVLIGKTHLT
Nature of the assay: SPR (Biacore), captured IgG, monomeric ERBB3-His analyte. For orientation: Surface plasmon resonance follows binding to a sensor surface in real time, without labels.

For assay [2], the target named is T2, rhesus ERBB3 on transiently transfected HEK-293 cells (rhesus monkey (Macaca mulatta), UniProt P21860 20-1342 (human entry)).
T2 construct: also called rhesus ERBB3+ HEK-293 cells
T2 chain: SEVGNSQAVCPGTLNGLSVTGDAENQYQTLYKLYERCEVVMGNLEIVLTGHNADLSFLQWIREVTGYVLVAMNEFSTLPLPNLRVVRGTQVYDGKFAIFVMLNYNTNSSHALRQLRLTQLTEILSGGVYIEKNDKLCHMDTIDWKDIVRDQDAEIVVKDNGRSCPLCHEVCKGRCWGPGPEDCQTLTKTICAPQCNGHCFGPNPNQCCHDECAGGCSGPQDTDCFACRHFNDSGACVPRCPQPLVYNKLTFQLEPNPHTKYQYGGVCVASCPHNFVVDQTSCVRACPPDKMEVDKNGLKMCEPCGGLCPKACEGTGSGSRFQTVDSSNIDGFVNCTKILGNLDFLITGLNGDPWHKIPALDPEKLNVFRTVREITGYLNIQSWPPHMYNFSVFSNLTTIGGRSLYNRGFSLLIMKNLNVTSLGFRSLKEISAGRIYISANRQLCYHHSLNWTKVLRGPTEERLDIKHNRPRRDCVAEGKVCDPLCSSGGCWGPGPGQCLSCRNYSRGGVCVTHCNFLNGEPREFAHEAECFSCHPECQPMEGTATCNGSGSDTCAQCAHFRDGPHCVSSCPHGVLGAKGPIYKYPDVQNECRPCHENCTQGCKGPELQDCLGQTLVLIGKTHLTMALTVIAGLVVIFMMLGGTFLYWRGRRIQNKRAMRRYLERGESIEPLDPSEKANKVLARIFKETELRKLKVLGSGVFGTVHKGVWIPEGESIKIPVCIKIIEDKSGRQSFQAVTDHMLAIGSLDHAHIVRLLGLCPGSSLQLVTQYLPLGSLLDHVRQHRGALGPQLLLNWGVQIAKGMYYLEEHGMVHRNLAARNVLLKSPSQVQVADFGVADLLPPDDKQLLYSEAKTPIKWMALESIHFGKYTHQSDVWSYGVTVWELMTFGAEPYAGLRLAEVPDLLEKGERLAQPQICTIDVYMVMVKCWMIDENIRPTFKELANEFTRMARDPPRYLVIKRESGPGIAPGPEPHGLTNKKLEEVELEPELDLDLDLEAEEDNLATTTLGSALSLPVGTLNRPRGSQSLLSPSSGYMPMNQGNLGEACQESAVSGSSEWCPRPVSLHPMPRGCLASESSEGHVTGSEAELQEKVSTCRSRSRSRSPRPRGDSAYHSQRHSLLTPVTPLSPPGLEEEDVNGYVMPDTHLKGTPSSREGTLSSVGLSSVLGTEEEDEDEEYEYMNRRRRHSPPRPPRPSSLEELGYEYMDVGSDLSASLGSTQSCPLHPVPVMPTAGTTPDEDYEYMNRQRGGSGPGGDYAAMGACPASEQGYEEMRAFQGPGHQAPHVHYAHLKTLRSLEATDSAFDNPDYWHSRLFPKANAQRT
Nature of the assay: flow cytometry, rhesus ERBB3-transfected HEK-293. An outline of the steps:
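Purified IgGs in IgG1null format were titrated threefold from 500 nM to 0.008 nM on HEK-293 cells transiently transfected with full-length human or rhesus ERBB3, with wild-type HEK-293 as comparison. Binding was detected with FITC anti-human IgG and read as mean fluorescence intensity of 10000 cells by flow cytometry.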
(In general: In flow cytometry, cells or beads pass a laser one at a time.)

Assay [3] concerns the target T2, rhesus ERBB3 on transiently transfected …. Nature of the assay: flow cytometry, rhesus ERBB3-transfected HEK-293 cells, IgG1null titrated. The method, then: Purified IgGs were tested in FACs for binding to human and rhesus monkey ERBB3 expressed on transiently transfected HEK-293 cells and HEK-293 wild-type cells. The IgG samples were titrated in three-fold serial dilutions starting at 500 nM to 0.008 nM. Binding of IgGs was detected with a mouse anti-human IgG conjugated to FITC. Results were analyzed by examining the Mean Fluorescence Intensity (MFI) of 10000 cells per sample in the BL-1 channel detector of a flow cytometer (Attune™ NxT Acoustic Focusing Cytometer, Invitrogen/ThermoFisher Scientific).
Antibodies to ERBB3 were analysed for concentration-dependent binding at the cell surface via flow cytometry. HEK-293 cells were transiently transfected with either human or rhesus ERBB3 full-length cDNAs. Anti-ERBB3 IgGs and an isotype control were then all tested in IgG1null format, over a concentration range of 500-0.008 nM for binding to human (FIG. 5A) and rhesus (FIG. 5B) transfected cells.

Experimental findings from patent publication US20200339702A1 (ULTRAHUMAN THIRTEEN, published 2020) are described below.

B1: 09D12 IgG1null (antibody, V domains shown)
VH: QVQLVESGGGLVKPGGSLRLSCAASGFTFSDYGMSWIRQAPGKGLEWVSTISDGGSYTYYADSVKGRFTISRDNAKNSLYLQMNSLRAEDTAVYYCAREYGDYDGFDYWGQGTLVTVSS
VL: DIQMTQSPSSLSASVGDRVTITCRASQSISSYLNWYQQKPGKAPKLLIYAASSLDSGVPSRFSGSGSGTDFTLTISSLQPEDFATYYCLQYDSTPLTFGGGTKVEIK
notes: Human IgG1null and human Ckappa
Take B1: in assay [1], the Kd (commonly the equilibrium constant for the complex coming apart) came out at 0.69 nM; the koff – broadly, the rate constant with which the complex falls apart – was 0.0074 s⁻¹; the kon (usually the second-order rate constant of association) was 1.1e+07 M⁻¹ s⁻¹. For the same molecule, the “maximum MFI, fold over isotype control background” value in assay [2] is over 20 fold. Besides, in assay [3], the EC50 (read off the curve) (usually the concentration giving half of the maximal effect) is about 0.4 nM.

B2: TTP IgG1null (antibody, V domains shown)
VH: QVQLVESGGGLVKPGGSLRLSCAASGFTFSDYGMSWIRQAPGKGLEWVSTISDSGSTIYYADSVKGRFTISRDNAKNSLYLQMNSLRAEDTAVYYCAREYGDYDGFDYWGQGTLVTVSS
VL: DIQMTQSPSSLSASVGDRVTITCRASQSISSYLNWYQQKPGKAPKLLIYAASSLQSGVPSRFSGSGSGTDFTLTISSLQPEDFATYYCLQYDSTPLTFGGGTKVEIK
notes: Designer clone; Human IgG1null and human Ckappa; also called Total Theoretically Possible clone
Regarding B2, the “maximum MFI, fold over isotype control background” value in assay [2] is over 20 fold. For the same molecule, the “EC50 (read off the curve)” value in assay [3] was about 0.9 nM.
